{"source": "the nanobody polyreactivity screen of Harvey et al. (2022)", "data": [{"test": "yeast display, Sf9 membrane polyspecificity reagent, FACS + sequencing; frameworks hold sequencing errors", "in_short": "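Using colony PCR, genes from sorted yeast display clones were amplified, then sequenced on MiSeq at 2 × 250 and filtered by CDR length. The clones had been stained with 10% biotinylated, detergent-solubilized Sf9 membrane reagent for 1 hour at 4 °C and sorted by FACS into low and high (top ~1%) gates on anti-HA and streptavidin fluorescence. Polyreactivity labels come from the gate of origin.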", "values": [{"sequence": "QVHLVESGGGLVQAGGSLRLSCAASGSICGHYAMGWYRQAPGKERELVANITLSDGRTYYADSVKGRFTISLDNAKNTVYFQMNSLKPEDTAVYYCAARYYSFSSPFDYWGQGNQVTVSS", "polyreactivity (PSR sort gate)": "high polyreactivity"}, {"sequence": "QVQLVESGGGLVQAGGSLRLSCAASGSTYRTYAMGWYRPAPGKERELVAAISSSGGSTYYADSVKGRFTISRDNAKNTVYLQMNSLKPEYTAVYYCNAGRSHRPHYDYWGQGTQVTVSS", "polyreactivity (PSR sort gate)": "high polyreactivity"}, {"sequence": "QVQLVESGGGLVQAGGSLRLSCAASGSTFRRYAMGWYRQAPGKERELVAGISKRGVSTYYADSVKGRFTISRDNAKNTVYLQMNSLKPEDTAVYYCAAEWTVSKYDYWGQGTQVTVSS", "polyreactivity (PSR sort gate)": "low polyreactivity"}, {"sequence": "HVQLQESGGGLMQAGGSQRLSCAASGSISYNSDMGWYRQAPGKEREFVAGIGYGTTTNYADSVKGRFTTSRDNAKNTVYLQMISMKPEDTEVYYCAAYQGNGYEFYYWGQGTQVTVRS", "polyreactivity (PSR sort gate)": "low polyreactivity"}, {"sequence": "QVQLVESGGGLVQAGGSLRLSCAASGRIFRRNAMGWYRQAPGKEREFVAAITSSGDSTNYADSVKGRFTISRDNAKNTVYLQMNSLKPEDTAVYYCAADWARSALQGFYYWGQGTQVTVSS", "polyreactivity (PSR sort gate)": "low polyreactivity"}, {"sequence": "QVQLVESGGGLVQAGGSLRLSCAASGSTVVIKAMGWYRQAPGKERELVARISSSGGRTYYADSVKGRFTISRDNAKNTVYLQMNSLKPEDTAVYYCAKRGYLFLRGSVRVGYNYWGQGTQVTVSS", "polyreactivity (PSR sort gate)": "low polyreactivity"}, {"sequence": "QVQLVESGGGLVQAGGSLRLSCAASGITFPLYVLGWYRQAPGKDRELVAAISASGGSTYADSVKGRFTISRDNAKNTVYFQMNSLKTEVTAVYYCNADVYVGYEYDYWGQGTQVTVSS", "polyreactivity (PSR sort gate)": "low polyreactivity"}, {"sequence": "QVQLVESGGGLVQAGGSLRLSCAASGSIFGVYAMGWYRQAPGKERELVAGITFGDSTTYYADSVKGRFTISRDNAKNTVYLQMNSLKPEDTAVYYCAADNRWEDYKVDYWGQGTQVTVSS", "polyreactivity (PSR sort gate)": "low polyreactivity"}, {"sequence": "QVQLVESGGGLVQAGGSLRLSCAASGSIFAGYAMGWYRQAPGKERELVAAISWSGGRTYYADSVKGRFTISRDNAKNTVYLQMNSLKPEDTAVYYCAALYIYRTYAALSRYDYWGQGTQVTVSS", "polyreactivity (PSR sort gate)": "high polyreactivity"}, {"sequence": "QVQLVESGGGLVQAGGSLRLSCADSGSILGNAMVWYRQAPGKERELVAAITRGVSTYYADSVKGRFTISRDNAKNTVYLQMNSLKPEDTAVYYCYKTYVRGVHGVYLPITSYDYWGQGTQVTVSS", "polyreactivity (PSR sort gate)": "low polyreactivity"}, {"sequence": "QVQLEESGGGLVQAGGSLRLSCAASGSTFTEYVMGWYRHATGKERELVAAIRSNGGSTYYADSVKGRFTISRDNAKNTVYLQMHSLNPEDTAVYYCNRVYSRRTYNSPLYDDWGQGTQVTVSS", "polyreactivity (PSR sort gate)": "high polyreactivity"}, {"sequence": "QVQLVESGGGLVQAGGTLRLSCAASGSTFGYYTMGWYRQAPGKERELVAAITWSGGSTYYADSVKGRFTISRDNAKKTVYLQMNSLKAEDSAVSYCAADDYWTPFGYSGQGTQVTVSS", "polyreactivity (PSR sort gate)": "low polyreactivity"}, {"sequence": "QVQLVESGGGLVQAGGSLRLSCASSGSTFGINAMGGYREAPGKERELVAAITFISGSTNYADSVKGRFTISRDKAKNTVNLQMNCLKPEDTAVYYCAADSVYYAGYDVDYWGQGTQVTVSS", "polyreactivity (PSR sort gate)": "low polyreactivity"}, {"sequence": "QVQLVESGGGLVQEVGSLRISCAASGRIFYVYSMGWYRQAPGKERELVAAITSGGRTDYADSVKGRFTISRDNAKNTVYLQLNSLKPEDTAVYYCAAGGGWNGHRHRWLYGYGYWGQGTQVTVSS", "polyreactivity (PSR sort gate)": "high polyreactivity"}, {"sequence": "QVQLVESGGGLVQAGGSLRLSCAASGIIFPPYAMGWYRQAPWKEREFVAGITSSGGTYYADSVKGRFTISRDNAKNTVYLQMNSLKPEDTAVYYCAARQGNLRRGVRWFNYWGQGTQVTVSS", "polyreactivity (PSR sort gate)": "high polyreactivity"}, {"sequence": "QVQLVESGGGLVQAGGSLRLSCAASGITFSRNAMGWYRQAPGKERELVATITSGGSTNYADSVKGRFTISRDNAKNTVYLQMNSLKPEDTAVYYCNAVWNTFISGRSYDYWGQGTQVTVSS", "polyreactivity (PSR sort gate)": "low polyreactivity"}, {"sequence": "QDQLVESGGGLVQAGGSLRLSCADSGRIFCINAMGWYRQAPGKERELVAAINWSGGSTYYADSVKGRFTISRDNAKNTVYLQMNSLKPEDTAVYYCAAQKYKRVGYWGQGTQVTVSS", "polyreactivity (PSR sort gate)": "high polyreactivity"}, {"sequence": "QVQLVESGGGLVQAGCSLRISCAASGFIFKRNAMGWYRQAPGKERELVAAITWRGGSTYYADSVKGRFTISRDTAKNTVYLQMNSLKPEDTAVYYCAADSYYPRGYRTGWSESAYVSWGQGTLVTVSS", "polyreactivity (PSR sort gate)": "high polyreactivity"}, {"sequence": "QVQLVESGGGLVQAGGSLRLSCAASGFIFDSYVMGWYRQAPGKERELVAAISRRNSSTYYADSVKGRFTNSRDNAKNTVYLQMNSLKPEDTAVYYCAAKYLRAYGYWGQGTQVTVSS", "polyreactivity (PSR sort gate)": "high polyreactivity"}, {"sequence": "QVQLVESGGGLVQAGGSLRLSCAASGFYYYAMGWYRQAPGKERELVAVITYSGGSTYYADSVKGRFTISRDNAKNTVYLQMNSVKPEDTAVYYCAADYRPGYDYWGQGTQVTVSS", "polyreactivity (PSR sort gate)": "low polyreactivity"}, {"sequence": "QVQLVESGGGLVQAGGSLRLSCAASGRTFDDYAMGWYIQAPGKERELVAGIRWSVGNTDYADSVKGRFTISRDNAKNTVYLQMNSLKPEDTAVYYCNARPFLTVLYLFYGNNYDYWGQGTQVTVSS", "polyreactivity (PSR sort gate)": "low polyreactivity"}, {"sequence": "QVQLVESGGGLVQAGGSLRLICAASGSIFDYNAMGWYRQAPGKERELVAAITSTDSTYADSVKGRFTISRDNAKNTVYLQMNSLKPEDTAVYYCNARYLAWTYYYPYDYWGQGTQVTVSS", "polyreactivity (PSR sort gate)": "low polyreactivity"}]}]}
